In US20180086849A1 (Hoffmann-La Roche, published 2018):
Changes are numbered by the printed parent chain.

T1: hu-MCSP(D3 domain)-avi-his (human, UniProt Q6UVK1 1582-2224, biotinylated where used for selection or for coupling to the SA chip)
T1 construct: also called human MCSP(D3 domain)-avi-his; human MCSP D3
T1 sequence: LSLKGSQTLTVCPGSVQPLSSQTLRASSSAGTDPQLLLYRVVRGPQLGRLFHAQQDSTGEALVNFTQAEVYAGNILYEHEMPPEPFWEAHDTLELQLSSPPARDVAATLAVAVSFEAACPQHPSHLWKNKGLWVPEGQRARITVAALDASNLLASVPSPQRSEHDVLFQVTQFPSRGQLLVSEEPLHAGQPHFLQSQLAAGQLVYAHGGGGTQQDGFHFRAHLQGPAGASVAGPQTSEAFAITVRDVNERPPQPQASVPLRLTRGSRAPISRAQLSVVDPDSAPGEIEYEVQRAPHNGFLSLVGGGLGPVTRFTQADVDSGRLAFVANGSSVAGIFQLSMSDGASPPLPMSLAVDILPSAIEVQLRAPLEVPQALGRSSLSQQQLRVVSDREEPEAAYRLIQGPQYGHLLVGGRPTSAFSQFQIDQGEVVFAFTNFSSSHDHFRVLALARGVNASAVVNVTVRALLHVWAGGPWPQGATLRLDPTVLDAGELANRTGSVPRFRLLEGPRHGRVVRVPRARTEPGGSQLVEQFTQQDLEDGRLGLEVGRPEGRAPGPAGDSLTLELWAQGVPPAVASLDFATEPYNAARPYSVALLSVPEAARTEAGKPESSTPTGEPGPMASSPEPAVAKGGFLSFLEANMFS

T2: cynomolgus MCSP D3 (cynomolgus, UniProt Q6UVK1 1582-2224 (human entry))
T2 construct: also called cynomolgus homologue; not shown: C-terminal tag
T2 chain: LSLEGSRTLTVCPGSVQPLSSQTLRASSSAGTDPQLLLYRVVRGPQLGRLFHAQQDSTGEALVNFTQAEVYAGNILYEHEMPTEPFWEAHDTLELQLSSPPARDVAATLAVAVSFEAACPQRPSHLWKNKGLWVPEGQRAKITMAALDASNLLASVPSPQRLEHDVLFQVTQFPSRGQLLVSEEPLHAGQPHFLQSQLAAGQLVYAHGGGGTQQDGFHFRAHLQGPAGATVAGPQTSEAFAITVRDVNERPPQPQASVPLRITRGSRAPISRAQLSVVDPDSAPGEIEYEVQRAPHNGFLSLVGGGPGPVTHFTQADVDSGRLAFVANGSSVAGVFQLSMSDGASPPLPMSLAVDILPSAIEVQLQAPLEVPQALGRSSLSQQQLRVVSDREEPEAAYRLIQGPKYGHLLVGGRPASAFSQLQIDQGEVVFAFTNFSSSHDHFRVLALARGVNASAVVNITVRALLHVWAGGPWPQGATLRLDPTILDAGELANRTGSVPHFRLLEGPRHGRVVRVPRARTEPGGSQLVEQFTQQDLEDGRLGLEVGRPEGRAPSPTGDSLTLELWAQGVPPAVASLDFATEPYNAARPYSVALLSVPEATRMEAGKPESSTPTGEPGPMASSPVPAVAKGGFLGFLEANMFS

B1: 1+1 IgG Crossfab; VL/VH exchange (LC007/V9), anti-MCSP/anti-huCD3 (bispecific antibody)
chain 1: DIVLTQSPSSLSASLGDRVTISCSASQGIRNYLNWYQQRPDGTVKLLIYYTSSLHSGVPSRFSGSGSGTDYSLTISNLEPEDIATYYCQQYSKLPWTFGGGTKLEIKRTVAAPSVFIFPPSDEQLKSGTASVVCLLNNFYPREAKVQWKVDNALQSGNSQESVTEQDSKDSTYSLSSTLTLSKADYEKHKVYACEVTHQGLSSPVTKSFNRGEC
chain 2: DIQMTQSPSSLSASVGDRVTITCRASQDIRNYLNWYQQKPGKAPKLLIYYTSRLESGVPSRFSGSGSGTDYTLTISSLQPEDFATYYCQQGNTLPWTFGQGTKVEIKSSASTKGPSVFPLAPSSKSTSGGTAALGCLVKDYFPEPVTVSWNSGALTSGVHTFPAVLQSSGLYSLSSVVTVPSSSLGTQTYICNVNHKPSNTKVDKKVEPKSCGGGGSGGGGSEVQLQESGPGLVKPSQSLSLTCSVTGYSITSGYYWNWIRQFPGNKLEWMGYITYDGSNNYNPSLKNRISITRDTSKNQFFLKLNSVTTEDTATYYCADFDYWGQGTTLTVSSASTKGPSVFPLAPSSKSTSGGTAALGCLVKDYFPEPVTVSWNSGALTSGVHTFPAVLQSSGLYSLSSVVTVPSSSLGTQTYICNVNHKPSNTKVDKKVEPKSCDKTHTCPPCPAPEAAGGPSVFLFPPKPKDTLMISRTPEVTCVVVDVSHEDPEVKFNWYVDGVEVHNAKTKPREEQYNSTYRVVSVLTVLHQDWLNGKEYKCKVSNKALGAPIEKTISKAKGQPREPQVCTLPPSRDELTKNQVSLSCAVKGFYPSDIAVEWESNGQPENNYKTTPPVLDSDGSFFLVSKLTVDKSRWQQGNVFSCSVMHEALHNHYTQKSLSLSPGK
chain 3: EVQLVESGGGLVQPGGSLRLSCAASGYSFTGYTMNWVRQAPGKGLEWVALINPYKGVSTYNQKFKDRFTISVDKSKNTAYLQMNSLRAEDTAVYYCARSGYYGDSDWYFDVWGQGTLVTVSSASVAAPSVFIFPPSDEQLKSGTASVVCLLNNFYPREAKVQWKVDNALQSGNSQESVTEQDSKDSTYSLSSTLTLSKADYEKHKVYACEVTHQGLSSPVTKSFNRGEC
chain 4: not shown
B2: M4-3(B7)/ML2 (IgG) (antibody, V domains shown)
VH: QVQLQESGPGLVKPSQTLSLTCTVSGGSITSGYYWNWIRQHPGKGLEWIGYITFDGINNYNPSLKSRVTISRDTSKNQFSLKLSSVTAADTAVYYCADFDYWGQGTLVTVSS
VL: DIQMTQSPSSLSASVGDRVTITCRASQGIRNYLNWYQQKPGKAPKLLIYYTSSLHSGVPSRFSGSGSGTDFTLTISSLQPEDFATYYCQQYSKLPWTFGQGTKVEIK
notes: Human IgG1 format
B3: M4-3(B8)/ML2 (IgG) (antibody, V domains shown)
VH: B2 VH with I57R
VL: B2 VL
notes: Human IgG1 format
B4: M4-3(C1)/ML2(C5) (IgG) (antibody, V domains shown)
VH: B2 VH with I57S
VL: B2 VL with Q27R, N31E, S52G, K93E
notes: Human IgG1 format
B5: M4-3(C1)/ML2(E10) (IgG) (antibody, V domains shown)
VH: B2 VH with I57S
VL: B2 VL with Q27Y, N31G, Y87H
notes: Human IgG1 format
B6: M4-3/ML2(G3) (IgG) (antibody, V domains shown)
VH: B2 VH with F54Y, I57S
VL: B2 VL with F71Y, K93A
notes: Human IgG1 format
B7: M4-3(A7)/ML2 (IgG) (antibody, V domains shown)
VH: B2 VH with S31D, I57R
VL: B2 VL
notes: Human IgG1 format
B8: M4-3(A7)/ML2(E10) (IgG) (antibody, V domains shown)
VH: B2 VH with S31D, I57R
VL: B2 VL with Q27Y, N31G, Y87H
notes: Human IgG1 format
B9: M4-3(A7)/ML2(G3) (IgG) (antibody, V domains shown)
VH: B2 VH with S31D, I57R
VL: B2 VL with F71Y, K93A
notes: Human IgG1 format
B10: M4-3(C1)/ML2 (IgG) (antibody, V domains shown)
VH: B2 VH with I57S
VL: B2 VL
notes: Human IgG1 format
B11: M4-3(D6)/ML2 (IgG) (antibody, V domains shown)
VH: B2 VH with I57K
VL: B2 VL
notes: Human IgG1 format
B12: M4-3/ML2 (C5) (IgG) (antibody, V domains shown)
VH: B2 VH with F54Y, I57S
VL: B2 VL with Q27R, N31E, S52G, K93E
notes: Human IgG1 format
B13: M4-3/ML2 (C5/G3) (IgG) (antibody, V domains shown)
VH: B2 VH with F54Y, I57S
VL: B2 VL with Q27R, N31E, S52G, K93A
notes: Human IgG1 format
B14: M4-3/ML2 (E10) (IgG) (antibody, V domains shown)
VH: B2 VH with F54Y, I57S
VL: B2 VL with Q27Y, N31G, Y87H
notes: Human IgG1 format
B15: M4-3/ML2 (E10/G3) (IgG) (antibody, V domains shown)
VH: B2 VH with F54Y, I57S
VL: B2 VL with Q27Y, N31G, Y87H, K93A
notes: Human IgG1 format
B16: M4-3(C1)/ML2(G3) (IgG) (antibody, V domains shown)
VH: B2 VH with I57S
VL: DIQMTQSPSSLSASVGDRVTITCRASQGIRNYLNWYQQKPGKAPKLLIYYTSSLHSGVPSRFSGSGSGTDYTLTISSLQPEDFATYYCQQYSALPWTFGQGTKVEIKR
notes: Human IgG1; also called MCSP M4-3(C1) ML2(G3)

What was measured:
[1] = target: human MCSP (Melanoma-associated Chondroitin Sulfate Proteoglycan) on cells (human, UniProt Q6UVK1 30-2322); assay: cell-based or functional assay
[2] = target: T1, hu-MCSP(D3 domain)-avi-his; assay: SPR (ProteOn XPR36), IgG KD against parental M4-3/ML2
Procedure: (§1) Briefly, carboxymethylated dextran biosensor chips (CM5, GE Healthcare) were activated with N-ethyl-N′-(3-dimethylaminopropyl)-carbodiimide hydrochloride (EDC) and N-hydroxysuccinimide (NHS) according to the supplier's instructions. Anti-human F(ab′)2 fragment specific capture antibody was diluted with 10 mM sodium acetate, pH 5.0 at 50 μg/ml before injection at a flow rate of 10 μl/minute to achieve approximately up to 10.000 response units (RU) of coupled capture antibody. Following the injection of the capture antibody, 1 M ethanolamine was injected to block unreacted groups. For kinetics measurements, Fabs from bacterial supernatant or purified Fabs are injected at a flow rate of 10 ul/minute for 300 s and a dissociation of 300 s for capture baseline stabilization. […] The surface of the sensorchip was regenerated by injection of glycine pH 1.5 for 30 s at 90 ul/min followed by injection of NaOH for 20 s at the same flow rate. Association rates (kon) and dissociation rates (koff) were calculated using a simple one-to-one Langmuir binding model (ProteOn XPR36 Evaluation Software or Scrubber software (BioLogic)) by simultaneously fitting the association and dissociation sensorgrams. The equilibrium dissociation constant (KD) was calculated as the ratio koff/kon. […] Since CDR1 and 2 of the light chain were randomized independent from CDR3, the obtained CDRs were combined during IgG conversion.
(§2) In the IgG format affinities were measured again to the human MCSP antigen (SEQ ID NO. 390), in addition also to the cynomolgus homologue (SEQ ID NO. 389). Method exactly as described for the Fab fragments, just purified IgG from mammalian production were used.

cynomolgus MCSP D3 = target: T2, cynomolgus MCSP D3; assay: as above
Procedure: as §1, §2

Sequence of human MCSP (Melanoma-associated Chondroitin Sulfate Proteoglycan) on cells (Q6UVK1 30-2322): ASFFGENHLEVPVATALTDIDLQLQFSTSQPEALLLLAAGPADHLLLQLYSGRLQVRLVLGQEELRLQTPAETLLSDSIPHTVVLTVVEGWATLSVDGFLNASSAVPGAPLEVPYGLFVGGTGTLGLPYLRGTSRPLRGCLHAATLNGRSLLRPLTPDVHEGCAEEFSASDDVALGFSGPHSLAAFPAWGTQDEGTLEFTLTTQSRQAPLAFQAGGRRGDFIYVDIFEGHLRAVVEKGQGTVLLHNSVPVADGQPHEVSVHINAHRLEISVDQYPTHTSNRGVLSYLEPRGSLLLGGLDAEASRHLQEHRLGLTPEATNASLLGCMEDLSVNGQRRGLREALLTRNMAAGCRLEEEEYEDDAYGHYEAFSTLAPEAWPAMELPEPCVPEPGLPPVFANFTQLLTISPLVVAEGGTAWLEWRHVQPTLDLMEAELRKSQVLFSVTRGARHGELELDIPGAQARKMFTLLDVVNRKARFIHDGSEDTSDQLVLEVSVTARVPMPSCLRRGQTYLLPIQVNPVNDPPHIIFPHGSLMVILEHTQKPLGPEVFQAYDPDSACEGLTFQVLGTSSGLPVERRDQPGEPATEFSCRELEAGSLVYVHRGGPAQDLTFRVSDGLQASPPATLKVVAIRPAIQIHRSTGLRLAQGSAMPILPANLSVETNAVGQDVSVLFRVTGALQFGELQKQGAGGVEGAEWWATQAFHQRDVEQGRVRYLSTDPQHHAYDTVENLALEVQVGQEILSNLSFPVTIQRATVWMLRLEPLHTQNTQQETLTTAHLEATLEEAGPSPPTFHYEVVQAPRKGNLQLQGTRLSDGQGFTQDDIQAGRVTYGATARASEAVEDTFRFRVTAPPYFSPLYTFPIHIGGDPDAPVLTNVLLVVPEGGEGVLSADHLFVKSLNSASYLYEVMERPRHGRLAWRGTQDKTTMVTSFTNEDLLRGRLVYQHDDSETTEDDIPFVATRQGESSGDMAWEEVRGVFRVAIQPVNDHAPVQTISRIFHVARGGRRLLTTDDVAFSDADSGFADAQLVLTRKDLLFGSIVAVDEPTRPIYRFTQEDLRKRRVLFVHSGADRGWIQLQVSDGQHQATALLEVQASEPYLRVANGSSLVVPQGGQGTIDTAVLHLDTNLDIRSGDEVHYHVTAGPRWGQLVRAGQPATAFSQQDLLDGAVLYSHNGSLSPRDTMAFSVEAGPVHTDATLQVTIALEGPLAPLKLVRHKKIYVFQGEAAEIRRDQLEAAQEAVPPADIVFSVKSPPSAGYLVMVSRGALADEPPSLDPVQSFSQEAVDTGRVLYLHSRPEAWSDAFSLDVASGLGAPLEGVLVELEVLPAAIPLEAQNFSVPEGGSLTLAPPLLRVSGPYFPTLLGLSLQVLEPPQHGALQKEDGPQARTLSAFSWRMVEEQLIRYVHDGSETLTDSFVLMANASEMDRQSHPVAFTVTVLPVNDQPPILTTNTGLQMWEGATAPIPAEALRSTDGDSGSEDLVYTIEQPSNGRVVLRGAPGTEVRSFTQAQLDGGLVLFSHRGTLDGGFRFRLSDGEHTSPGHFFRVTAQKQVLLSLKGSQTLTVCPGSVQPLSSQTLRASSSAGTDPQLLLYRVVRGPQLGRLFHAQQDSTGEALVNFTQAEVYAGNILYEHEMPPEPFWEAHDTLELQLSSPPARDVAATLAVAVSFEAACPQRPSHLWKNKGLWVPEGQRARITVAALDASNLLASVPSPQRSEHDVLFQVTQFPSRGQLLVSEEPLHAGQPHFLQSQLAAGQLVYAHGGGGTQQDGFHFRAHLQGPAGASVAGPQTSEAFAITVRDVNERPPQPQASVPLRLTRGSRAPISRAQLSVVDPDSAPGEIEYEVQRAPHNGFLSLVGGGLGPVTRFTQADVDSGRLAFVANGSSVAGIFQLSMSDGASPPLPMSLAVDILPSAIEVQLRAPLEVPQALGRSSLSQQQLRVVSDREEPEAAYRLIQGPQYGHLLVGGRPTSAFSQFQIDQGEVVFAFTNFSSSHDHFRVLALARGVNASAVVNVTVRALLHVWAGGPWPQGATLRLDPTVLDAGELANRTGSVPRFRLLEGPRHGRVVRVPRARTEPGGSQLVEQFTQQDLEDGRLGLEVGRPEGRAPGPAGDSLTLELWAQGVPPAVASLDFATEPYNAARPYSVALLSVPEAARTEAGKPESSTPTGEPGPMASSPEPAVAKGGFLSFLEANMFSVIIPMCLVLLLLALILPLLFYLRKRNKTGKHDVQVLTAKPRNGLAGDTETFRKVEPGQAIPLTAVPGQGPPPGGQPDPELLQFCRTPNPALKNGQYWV

Binder | EC50 of T cell-mediated killing (LDH release) of MV-3 cells, human PBMCs, 21 h [1] | EC50 of T cell-mediated killing (LDH release) of WM266-4 cells, human PBMCs, 21 h [1] | Comparative binding affinity - Fold increase over parent [2] | Comparative binding affinity - Fold increase over parent (cynomolgus MCSP D3)
B1 | 40.9 pM | 28.4 pM | – | –
B2 | – | – | 4 fold | 2.9 fold
B3 | – | – | 2.2 fold | 2 fold
B4 | – | – | 10 fold | 6.7 fold
B5 | – | – | 4 fold | 3.3 fold
B6 | – | – | 6.7 fold | 3.3 fold
B7 | – | – | 2.5 fold | 2 fold
B8 | – | – | 6.7 fold | 2.9 fold
B9 | – | – | 28.6 fold | 10 fold
B10 | – | – | 2.2 fold | 2.5 fold
B11 | – | – | 5 fold | 2 fold
B12 | – | – | 5 fold | 2 fold
B13 | – | – | 2.9 fold | 2 fold
B14 | – | – | 2 fold | 1 fold
B15 | – | – | 5 fold | 2.2 fold
B16 | – | – | 28.6 fold | 10 fold
